In US20120058906A1 (published 2012):
Each block holds one binder with its values, some of them ahead of it.

Experiments:
[1] = target: T1, Recombinant Human DLL4 (R&D Systems Cat#1506-D4/CF) (human, UniProt Q9NR61 27-524); assay: MSD ECL multi-spot assay, antigen spotted on plate, Fab 0.06 uM; blank spot 842
T1 construct: Bought protein; also called delta-like protein 4; rHuman DLL4

[2] = target: T2, rHuman CD44/Fc Chimera, CF (R&D Systems Cat#3660-CD) (human, UniProt P16070 21-220); assay: as above
T2 construct: Bought protein; Fc part of the bought chimera not given

[3] = target: T3, rHuman ErbB2/Fc Chimera, CF (R&D Systems Cat#1129-ER) (human, UniProt P04626 23-652); assay: as above
T3 construct: Bought protein; also called HER2/neu; human epidermal growth factor 2 receptor; Fc part of the bought chimera not given

[4] = target: T4, rHuman IGF-1 sR (IGF-1 sR), CF (R&D Systems Cat#391-GR) (human, UniProt P08069 31-932); assay: as above
T4 construct: Bought soluble receptor; also called insulin-like growth factor-1 soluble receptor; IGF-R1

[5] = target: T5, rHuman Notch-1/Fc Chimera, CF (R&D Systems Cat#3647-TK) (human, UniProt P46531 19-526); assay: MSD ECL multi-spot assay, antigen spotted on plate, Fab 0.93 uM; blank spot 4760
T5 construct: Bought protein; Fc part of the bought chimera not given

[6] = target: T4, rHuman IGF-1 sR (IGF-1 sR), CF (R&D …); assay: as above
[7] = target: T6, rHuman Erythropoietin R/Fc Chimera, CF (R&D Systems Cat#963-ER) (human, UniProt P19235 25-250); assay: as above
T6 construct: Bought protein; also called EPOR; EPO R/Fc; Fc part of the bought chimera not given
T6 sequence: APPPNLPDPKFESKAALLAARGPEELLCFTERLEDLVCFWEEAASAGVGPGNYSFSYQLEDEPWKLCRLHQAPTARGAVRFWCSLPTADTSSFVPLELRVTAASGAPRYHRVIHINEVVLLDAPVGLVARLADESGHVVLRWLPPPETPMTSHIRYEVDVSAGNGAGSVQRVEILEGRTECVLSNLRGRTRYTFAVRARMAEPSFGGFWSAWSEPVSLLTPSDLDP

[8] = target: T5, rHuman Notch-1/Fc Chimera, CF (R&D …); assay: MSD ECL multi-spot assay, antigen spotted on plate, Fab 1.57 uM; blank spot 797
[9] = target: T1, Recombinant Human DLL4 (R&D Systems …); assay: as above
[10] = target: T2, rHuman CD44/Fc Chimera, CF (R&D Systems …); assay: as above
[11] = target: T7, rHuman HGF R/c-MET/Fc Chimera, CF (R&D Systems Cat#358-MT/CF) (human, UniProt P08581 25-932); assay: as above
T7 construct: Bought protein; also called HGF R/Fc; hepatocyte growth factor receptor; Fc part of the bought chimera not given

[12] = target: T3, rHuman ErbB2/Fc Chimera, CF (R&D …); assay: as above
[13] = target: T4, rHuman IGF-1 sR (IGF-1 sR), CF (R&D …); assay: as above
[14] = target: T6, rHuman Erythropoietin R/Fc Chimera, CF …; assay: as above
[15] = target: T5, rHuman Notch-1/Fc Chimera, CF (R&D …); assay: MSD ECL multi-spot assay, antigen spotted on plate, Fab 0.48 uM; blank spot 2877;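 also: blank spot per well as comparator with Hit at signal to blank ratio of 4 or more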
[16] = target: T1, Recombinant Human DLL4 (R&D Systems …); assay: as above
[17] = target: T5, rHuman Notch-1/Fc Chimera, CF (R&D …); assay: MSD ECL multi-spot assay, antigen spotted on plate, Fab 0.13 uM; blank spot 786
[18] = target: T1, Recombinant Human DLL4 (R&D Systems …); assay: as above
[19] = target: T2, rHuman CD44/Fc Chimera, CF (R&D Systems …); assay: as above
[20] = target: T7, rHuman HGF R/c-MET/Fc Chimera, CF (R&D …); assay: as above
[21] = target: T3, rHuman ErbB2/Fc Chimera, CF (R&D …); assay: as above
[22] = target: T4, rHuman IGF-1 sR (IGF-1 sR), CF (R&D …); assay: as above
[23] = target: T8, rHuman EGF R/Fc Chimera, CF (R&D Systems Cat#344-ER) (human, UniProt P00533 25-645); assay: as above
T8 construct: Bought protein; also called epidermal growth factor receptor; Fc part of the bought chimera not given

[24] = target: T6, rHuman Erythropoietin R/Fc Chimera, CF …; assay: as above
[25] = target: T1, Recombinant Human DLL4 (R&D Systems …); assay: MSD ECL multi-spot assay, antigen spotted on plate, Fab 0.51 uM; blank spot 1393
[26] = target: T2, rHuman CD44/Fc Chimera, CF (R&D Systems …); assay: as above
[27] = target: T7, rHuman HGF R/c-MET/Fc Chimera, CF (R&D …); assay: as above
[28] = target: T3, rHuman ErbB2/Fc Chimera, CF (R&D …); assay: as above
[29] = target: T4, rHuman IGF-1 sR (IGF-1 sR), CF (R&D …); assay: as above
[30] = target: T9, rHuman P-Cadherin/Fc Chimera, CF (R&D Systems Cat#861-PC) (human, UniProt P22223 108-654); assay: MSD ECL multi-spot assay, antigen spotted on plate, Fab 0.28 uM; blank spot 1773
T9 construct: Bought protein; also called CDH3; Fc part of the bought chimera not given

B1: Fab VH1-3_IGHD4-23*01_IGHJ4*01 & L12_IGKJ1*01 (Fab, V domains shown)
VH: QVQLVQSGAEVKKPGASVKVSCKASGYTFTSYAMHWVRQAPGQRLEWMGWSNAGNGNTKYSQEFQGRVTITRDTSASTAYMELSSLRSEDMAVYYCARDDYGGNSDYFDYWGQGTLVTVSS
VL: not shown
- ECL signal [1]: 13600
- ECL signal [2]: 1680
- ECL signal [3]: 1570
- ECL signal [4]: 2320

B5: Fab VH1-8_IGHD2-2*01_IGHJ6*01 & L12_IGKJ1*01 (Fab, V domains shown)
VH: QVQLVQSGAEVKKPGASVKVSCKASGYTFTSYDINWVRQATGQGLEWMGWMNPNSGNTGYAQKFQGRVTMTRNTSISTAYMELSSLRSEDTAVYYCARGGYCSSTSCYADYYYYYGMDVWGQGTTVTVSS
VL: not shown
- ECL signal [17]: 1320
- ECL signal [18]: 9850
- ECL signal [19]: 932
- ECL signal [20]: 969
- ECL signal [21]: 840
- ECL signal [22]: 1170
- ECL signal [23]: 859
- ECL signal [24]: 1110

B7: Fab VH1-46_IGHD2-15*01_IGHJ2*01 & L12_IGKJ1*01 (Fab, V domains shown)
VH: QVQLVQSGAEVKKPGASVKVSCKASGYTFTSYYMHWVRQAPGQGLEWMGIINPSGGSTSYAQKFQGRVTMTRDTSTSTVYMELSSLRSEDTAVYYCAREGYCSGGSCYSYWYFDLWGRGTLVTVSS
VL: not shown
- ECL signal [30]: 8060

Further lines, results first:

- ECL signal [5]: 23700
- ECL signal [6]: 13900
- ECL signal [7]: 16700
B2: Fab VH1-46_IGHD3-10*01_IGHJ4*01 & L12_IGKJ1*01 (Fab, V domains shown)
VH: QVQLVQSGAEVKKPGASVKVSCKASGYTFTSYYMHWVRQAPGQGLEWMGIINPSGGSTSYAQKFQGRVTMTRDTSTSTVYMELSSLRSEDTAVYYCAREYYYGSGSYYNDYFDYWGQGTLVTVSS
VL: not shown

- ECL signal [8]: 1260
- ECL signal [9]: 1500
- ECL signal [10]: 836
- ECL signal [11]: 1040
- ECL signal [12]: 904
- ECL signal [13]: 985
- ECL signal [14]: 6390
B3: Fab VH1-46_IGHD3-10*01_IGHJ4*01 & O1_IGKJ1*01 (Fab, V domains shown)
VH: QVQLVQSGAEVKKPGASVKVSCKASGYTFTSYYMHWVRQAPGQGLEWMGIINPSGGSTSYAQKFQGRVTMTRDTSTSTVYMELSSLRSEDTAVYYCAREYYYGSGSYYNDYFDYWGQGTLVTVSS
VL: DIVMTQTPLSLPVTPGEPASISCRSSQSLLDSDDGNTYLDWYLQKPGQSPQLLIYTLSYRASGVPDRFSGSGSGTDFTLKISRVEAEDVGVYYCMQRIEFPSWTFGQGTKVEIK
notes: Fab from E. coli; VH joined to the CH1 (Flag and His tags) of Plasmid A, VL to the kappa CL of Plasmid C

- ECL signal [15]: 12800
- ECL signal [16]: 13700
B4: Fab VH1-46_IGHD6-13*01_IGHJ4*01 & A27_IGKJ1*01 (Fab, V domains shown)
VH: QVQLVQSGAEVKKPGASVKVSCKASGYTFTSYYMHWVRQAPGQGLEWMGIINPSGGSTSYAQKFQGRVTMTRDTSTSTVYMELSSLRSEDTAVYYCAREGYSSSWYDYFDYWGQGTLVTVSS
VL: not shown
notes: as for B3

- ECL signal [25]: 5650
- ECL signal [26]: 1880
- ECL signal [27]: 1740
- ECL signal [28]: 1700
- ECL signal [29]: 1740
B6: Fab VH4-34_IGHD7-27*01_IGHJ4*01 & L5_IGKJ1*01 (Fab, V domains shown)
VH: QVQLQQWGAGLLKPSETLSLTCAVYGGSFSGYYWSWIRQPPGKGLEWIGEINHSGSTNYNPSLKSRVTISVDTSKNQFSLKLSSVTAADTAVYYCARANWGDYFDYWGQGTLVTVSS
VL: DIQMTQSPSSVSASVGDRVTITCRASQGISSWLAWYQQKPGKAPKLLIYAASSLQSGVPSRFSGSGSGTDFTLTISSLQPEDFATYYCQQANSFPPWTFGQGTKVEIKR
notes: as for B3
